# Assay results taken from patent US20130323248A1 (published 2013).
# B1: anti-DLL-4 antibody C10 (antibody, V domains shown)
# VH: QVQLVESGAEVKKPGASVKVSCKASGYTFTSYYMHWVRQAPQGLEWMGIINPSGGSTSYAQKFQGRVTMTRDTSTNTVYMELSSLRSEDTAVYYCARDVWGGYFDYWGQGTLVTVSS
# VL: QSVLTQPASVSGSPGQSITISCTGTSSDVGGYNYVSWYQQHPGKAPKLMIYDVTNRPSGVSNRFSGSKSGNTASLTISGLQAEDEADYYCSSYTSSSTVIFGGGTKLTVL
# B2: anti-DLL-4 antibody C3 (antibody, V domains shown)
# VH: QVQLVQSGSELKKPGASVKVSCKASGYTFTSYYMHWVRQVPGQGLEWMGIINPSGGSTSYAQKFQGRVTMTRDTSTSTVYMELSSLRSEDTAVYYCATDYYDSSGYVDFDYWGQGTLVTVSS
# VL: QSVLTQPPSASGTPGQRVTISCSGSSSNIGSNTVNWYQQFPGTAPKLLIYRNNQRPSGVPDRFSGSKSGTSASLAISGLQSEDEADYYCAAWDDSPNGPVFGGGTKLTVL
# B3: anti-DLL-4 antibody G6 (antibody, V domains shown)
# VH: EVQLVESGGSLVQPGGSLRLSCAASGFTFSNGWMTWLRQAPGKGLEWVATIKPDGSDTAYVESVKGRFTISRDNAKNLLYLQMDSLRGDDTAVYFCARDLAYNAFDIWGQGTMVTVSS
# VL: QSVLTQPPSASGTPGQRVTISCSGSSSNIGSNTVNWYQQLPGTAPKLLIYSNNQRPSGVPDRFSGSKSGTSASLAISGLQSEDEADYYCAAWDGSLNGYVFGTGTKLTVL
# Molecular target: T1, human DLL-4 expressed on the surface of CHO-K1 cells (CHO-DLL-4 cells) (human, UniProt Q9NR61 27-685)
# Experiment: flow cytometry blocking of soluble Notch-1 binding
row,IC50 [nM],Binder
1,0.676,B1
2,0.364,B2
3,0.286,B3

# Molecular target: T1, human DLL-4 expressed on the surface of …
# Experiment: flow cytometry
row,EC50 [nM],Binder
1,0.216,B1
2,0.107,B2
3,0.305,B3

# Molecular target: T2, recombinant human DLL4 (rhDLL4) (human, UniProt Q9NR61 27-524)
# Experiment: Biacore SPR
row,Kd [nM],Binder
1,1.18,B1
2,0.884,B2
3,1.15,B3

# Molecular target: T2, recombinant human DLL4 (rhDLL4)
# Experiment: Biacore SPR
# Remark: another data set of the same source
row,Ka [M⁻¹],Binder
1,8.49e+08,B1
2,1.13e+09,B2
3,8.72e+08,B3
